Assay results reported in US20110091994A1, “Methods for Screening Compounds for Treating and/or Preventing an Hepatitis C Virus Infection” (priority 2008, published 2011).

B1: LPXN (protein, UniProt O60711 1-386, looked up)
Leupaxin: MEELDALLEELERSTLQDSDEYSNPAPLPLDQHSRKETNLDETSEILSIQDNTSPLPAQLVYTTNIQELNVYSEAQEPKESPPPSKTSAAAQLDELMAHLTEMQAKVAVRADAGKKHLPDKQDHKASLDSMLGGLEQELQDLGIATVPKGHCASCQKPIAGKVIHALGQSWHPEHFVCTHCKEEIGSSPFFERSGLAYCPNDYHQLFSPRCAYCAAPILDKVLTAMNQTWHPEHFFCSHCGEVFGAEGFHEKDKKPYCRKDFLAMFSPKCGGCNRPVLENYLSAMDTVWHPECFVCGDCFTSFSTGSFFELDGRPFCELHYHHRRGTLCHGCGQPITGRCISAMGYKFHPEHFVCAFCLTQLSKGIFREQNDKTYCQPCFNKLFPL
B2: KIF17 (protein, UniProt Q9P2E2 1-1029, looked up)
Kinesin-like protein KIF17: MASEAVKVVVRCRPMNQRERELRCQPVVTVDCARAQCCIQNPGAADEPPKQFTFDGAYHVDHVTEQIYNEIAYPLVEGVTEGYNGTIFAYGQTGSGKSFTMQGLPDPPSQRGIIPRAFEHVFESVQCAENTKFLVRASYLEIYNEDVRDLLGADTKQKLELKEHPEKGVYVKGLSMHTVHSVAQCEHIMETGWKNRSVGYTLMNKDSSRSHSIFTISIEMSAVDERGKDHLRAGKLNLVDLAGSERQSKTGATGERLKEATKINLSLSALGNVISALVDGRCKHVPYRDSKLTRLLQDSLGGNTKTLMVACLSPADNNYDETLSTLRYANRAKNIRNKPRINEDPKDALLREYQEEIKKLKAILTQQMSPSSLSALLSRQVPPDPVQVEEKLLPQPVIQHDVEAEKQLIREEYEERLARLKADYKAEQESRARLEEDITAMRNSYDVRLSTLEENLRKETEAVLQVGVLYKAEVMSRAEFASSAEYPPAFQYETVVKPKVFSTTDTLPSDDVSKTQVSSRFAELPKVEPSKSEISLGSSESSSLEETSVSEAFPGPEEPSNVEVSMPTEESRSRYFLDECLGQEAAGHLLGEQNYLPQEEPQEVPLQGLLGLQDPFAEVEAKLARLSSTVARTDAPQADVPKVPVQVPAPTDLLEPSDARPEAEAADDFPPRPEVDLASEVALEVVRTAEPGVWLEAQAPVALVAQPEPLPATAGVKRESVGMEVAVLTDDPLPVVDQQQVLARLQLLEQQVVGGEQAKNKDLKEKHKRRKRYADERRKQLVAALQNSDEDSGDWVLLNVYDSIQEEVRAKSKLLEKMQRKLRAAEVEIKDLQSEFQLEKIDYLATIRRQERDSMLLQQLLEQVQPLIRRDCNYSNLEKILRESCWDEDNGFWKIPHPVITKTSLPVAVSTGPQNKPARKTSAADNGEPNMEDDRYRLMLSRSNSENIASNYFRSKRASQILSTDARKSLTHHNSPPGLSCPLSNNSAIPPTQAPEMPQPRPFRLESLDIPFTKAKRKKSKSNFGSEPL
B3: LDB1 (protein, UniProt Q86U70 2-411, looked up)
LIM domain-binding protein 1: SVGCACPGCSSKSFKLYSPKEPPNGNAFPPFHPGTMLDRDVGPTPMYPPTYLEPGIGRHTPYGNQTDYRIFELNKRLQNWTEECDNLWWDAFTTEFFEDDAMLTITFCLEDGPKRYTIGRTLIPRYFRSIFEGGATELYYVLKHPKEAFHSNFVSLDCDQGSMVTQHGKPMFTQVCVEGRLYLEFMFDDMMRIKTWHFSIRQHRELIPRSILAMHAQDPQMLDQLSKNITRCGLSNSTLNYLRLCVILEPMQELMSRHKTYSLSPRDCLKTCLFQKWQRMVAPPAEPTRQQPSKRRKRKMSGGSTMSSGGGNTNNSNSKKKSPASTFALSSQVPDVMVVGEPTLMGGEFGDEDERLITRLENTQFDAANGIDDEDSFNNSPALGANSPWNSKPPSSQESKSENPTSQASQ
B4: LRRCC1 (protein, UniProt Q9C099 1-1032, looked up)
Leucine-rich repeat and …: MEAAAAVVAAEAEVENEDGDSSCGDVCFMDKGLQSISELSLDSTLHAVNLHCNNISKIEAIDHIWNLQHLDLSSNQISRIEGLNTLTKLCTLNLSCNLITKVEGLEELINLTRLNVSYNHIDDLSGLIPLHGIKHKLRYIDLHSNRIDSIHHLLQCMVGLHFLTNLILEKDGDDNPVCRLPGYRAVILQTLPQLRILDCKNIFGEPVNLTEINSSQLQCLEGLLDNLVSSDSPLNISEDEIIDRMPVITAPIDELVPLEQFASTPSDAVLTSFMSVCQSSEPEKNNHENDLQNEIKLQKLDDQILQLLNETSNSIDNVLEKDPRPKRDTDITSESDYGNRKECNRKVPRRSKIPYDAKTIQTIKHHNKNYNSFVSCNRKMKPPYLKELYVSSSLANCPMLQESEKPKTEIIKVDQSHSEDNTYQSLVEQLDQEREKRWRAEQAENKLMDYIDELHKHANEKEDIHSLALLTTDRLKEIIFRERNSKGQLEVMVHKLQNEIKKLTVELMKAKDQQEDHLKHLRTLEKTLEKMERQKRQQQAAQIRLIQEVELKASAADREIYLLRTSLHREREQAQQLHQLLALKEQEHRKELETREFFTDADFQDALAKEIAKEEKKHEQMIKEYQEKIDVLSQQYMDLENEFRIALTVEARRFQDVKDGFENVATELAKSKHALIWAQRKENESSSLIKDLTCMVKEQKTKLAEVSKLKQETAANLQNQINTLEILIEDDKQKSIQIELLKHEKVQLISELAAKESLIFGLRTERKVWGHELAQQGSSLAQNRGKLEAQIESLSRENECLRKTNESDSDALRIKCKIIDDQTETIRKLKDCLQEKDEHIKRLQEKITEIEKCTQEQLDEKSSQLDEVLEKLERHNERKEKLKQQLKGKEVELEEIRKAYSTLNRKWHDKGELLCHLETQVKEVKEKFENKEKKLKAERDKSIELQKNAMEKLHSMDDAFKRQVDAIVEAHQAEIAQLANEKQKCIDSANLKVHQIEKEMRELLEETCKNKKTMEAKIKQLAFALNEIQQDM
B5: KIF7 (protein, UniProt Q2M1P5 1-1343, looked up)
Kinesin-like protein KIF7: MGLEAQRLPGAEEAPVRVALRVRPLLPKELLHGHQSCLQVEPGLGRVTLGRDRHFGFHVVLAEDAGQEAVYQACVQPLLEAFFEGFNATVFAYGQTGSGKTYTMGEASVASLLEDEQGIVPRAMAEAFKLIDENDLLDCLVHVSYLEVYKEEFRDLLEVGTASRDIQLREDERGNVVLCGVKEVDVEGLDEVLSLLEMGNAARHTGATHLNHLSSRSHTVFTVTLEQRGRAPSRLPRPAPGQLLVSKFHFVDLAGSERVLKTGSTGERLKESIQINSSLLALGNVISALGDPQRRGSHIPYRDSKITRILKDSLGGNAKTVMIACVSPSSSDFDETLNTLNYASRAQNIRNRATVNWRPEAERPPEETASGARGPPRHRSETRIIHRGRRAPGPATASAAAAMRLGAECARYRACTDAAYSLLRELQAEPGLPGAAARKVRDWLCAVEGERSALSSASGPDSGIESASVEDQAAQGAGGRKEDEGAQQLLTLQNQVARLEEENRDFLAALEDAMEQYKLQSDRLREQQEEMVELRLRLELVRPGWGGPRLLNGLPPGSFVPRPHTAPLGGAHAHVLGMVPPACLPGDEVGSEQRGEQVTNGREAGAELLTEVNRLGSGSSAASEEEEEEEEPPRRTLHLRRNRISNCSQRAGARPGSLPERKGPELCLEELDAAIPGSRAVGGSKARVQARQVPPATASEWRLAQAQQKIRELAINIRMKEELIGELVRTGKAAQALNRQHSQRIRELEQEAEQVRAELSEGQRQLRELEGKELQDAGERSRLQEFRRRVAAAQSQVQVLKEKKQATERLVSLSAQSEKRLQELERNVQLMRQQQGQLQRRLREETEQKRRLEAEMSKRQHRVKELELKHEQQQKILKIKTEEIAAFQRKRRSGSNGSVVSLEQQQKIEEQKKWLDQEMEKVLQQRRALEELGEELHKREAILAKKEALMQEKTGLESKRLRSSQALNEDIVRVSSRLEHLEKELSEKSGQLRQGSAQSQQQIRGEIDSLRQEKDSLLKQRLEIDGKLRQGSLLSPEEERTLFQLDEAIEALDAAIEYKNEAITCRQRVLRASASLLSQCEMNLMAKLSYLSSSETRALLCKYFDKVVTLREEQHQQQIAFSELEMQLEEQQRLVYWLEVALERQRLEMDRQLTLQQKEHEQNMQLLLQQSRDHLGEGLADSRRQYEARIQALEKELGRYMWINQELKQKLGGVNAVGHSRGGEKRSLCSEGRQAPGNEDELHLAPELLWLSPLTEGAPRTREETRDLVHAPLPLTWKRSSLCGEEQGSPEELRQREAAEPLVGRVLPVGEAGLPWNFGPLSKPRRELRRASPGMIDVRKNPL
B6: L3MBTL3 (protein, UniProt Q96JM7 1-780, looked up)
Lethal(3)malignant brain …: MTESASSTSGQEFDVFSVMDWKDGVGTLPGSDLKFRVNEFGALEVITDENEMENVKKATATTTWMVPTAQEAPTSPPSSRPVFPPAYWTSPPGCPTVFSEKTGMPFRLKDPVKVEGLQFCENCCQYGNVDECLSGGNYCSQNCARHIKDKDQKEERDVEEDNEEEDPKCSRKKKPKLSLKADTKEDGEERDDEMENKQDVRILRGSQRARRKRRGDSAVLKQGLPPKGKKAWCWASYLEEEKAVAVPAKLFKEHQSFPYNKNGFKVGMKLEGVDPEHQSVYCVLTVAEVCGYRIKLHFDGYSDCYDFWVNADALDIHPVGWCEKTGHKLHPPKGYKEEEFNWQTYLKTCKAQAAPKSLFENQNITVIPSGFRVGMKLEAVDKKNPSFICVATVTDMVDNRFLVHFDNWDESYDYWCEASSPHIHPVGWCKEHRRTLITPPGYPNVKHFSWDKYLEETNSLPAPARAFKVKPPHGFQKKMKLEVVDKRNPMFIRVATVADTDDHRVKVHFDGWNNCYDYWIDADSPDIHPVGWCSKTGHPLQPPLSPLELMEASEHGGCSTPGCKGIGHFKRARHLGPHSAANCPYSEINLNKDRIFPDRLSGEMPPASPSFPRNKRTDANESSSSPEIRDQHADDVKEDFEERTESEMRTSHEARGAREEPTVQQAQRRSAVFLSFKSPIPCLPLRWEQQSKLLPTVAGIPASKVSKWSTDEVSEFIQSLPGCEEHGKVFKDEQIDGEAFLLMTQTDIVKIMSIKLGPALKIFNSILMFKAAEKNSHNEL

Biological target: T1, HCV ORFs (Gal4-DB fusions) (Hepatitis C virus genotype 1b, UniProt Q9WMX2)
T1 construct: expressed in transfected cells; host or cells: Saccharomyces cerevisiae MAV203 (IMAP1) / AH109 (IMAP2)
Assay: not given
Format: binding, HCV genotype 1b, isolate con1
Conditions: HCV protein CORE as bait; human protein as prey
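For IMAP Y2H IMAP1 (number of IST) in this document: yeast two-hybrid screens using HCV genotype 1b proteins fused to Gal4-DB as baits against prey cDNA libraries from human spleen and foetal brain, IMAP1 via transformation and IMAP2 via mating.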
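For IMAP Y2H IMAP2 (number of IST) in this document: yeast two-hybrid screens using HCV genotype 1b proteins fused to Gal4-DB as baits against prey cDNA libraries from human spleen and foetal brain, IMAP1 via transformation and IMAP2 via mating.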
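For Interaction with viral protein in this document: yeast two-hybrid screens using HCV genotype 1b proteins fused to Gal4-DB as baits against prey cDNA libraries from human spleen and foetal brain, IMAP1 via transformation and IMAP2 via mating.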

Molecule | IMAP Y2H IMAP1 (number of IST)
B1 | 1

Same assay, conditions: HCV protein NS3 as bait; human protein as prey

Molecule | IMAP Y2H IMAP1 (number of IST) | IMAP Y2H IMAP2 (number of IST)
B2 | 2 | –
B3 | 1 | –
B4 | 1 | –
B5 | 1 | –
B6 | 4 | 8

Test system: HCV ORFs (Gal4-DB fusions)
Assay: not given
Format: binding, HCV genotype 1b, isolate con1
Conditions: human protein listed by gene symbol; the value names the HCV protein it interacts with

Molecule | Interaction with viral protein
B2 | NS3
B3 | NS3
B1 | CORE
B4 | NS3
B5 | NS3
B6 | NS3

Biological target: T2, HCV proteins (Hepatitis C virus genotype 1b, UniProt Q9WMX2)
T2 construct: expressed in transfected cells
Assay: Validation by Y2H pairwise matrices;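 also: yeast two-hybrid pairwise tests of interactions first found in Y2H screens of HCV bait proteins against human cDNA libraries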
Format: binding
Conditions: validation of interaction with HCV protein CORE

Molecule | Y2H matrices
B1 | +

Same assay, conditions: validation of interaction with HCV protein NS3

Molecule | Y2H matrices
B2 | +
B3 | +
B4 | +
B5 | +
B6 | +
